Key:
[1] = molecular target: Claudin18.1 on cells (human) (UniProt P56856); assay: flow cytometry on 293T-Claudin18.1 cells, antibody at 0.375 µg/mL
[2] = molecular target: Claudin18.1 on cells (human) (UniProt P56856); assay: as above; remark: listed apart in the source
[3] = molecular target: Claudin18.1 on cells (human) (UniProt P56856); assay: flow cytometry on 293T-Claudin18.1 cells, antibody at 0.75 µg/mL
[4] = molecular target: Claudin18.1 on cells (human) (UniProt P56856); assay: flow cytometry on 293T-Claudin18.1 cells, antibody at 1.5 µg/mL
[5] = molecular target: Claudin18.1 on cells (human) (UniProt P56856); assay: flow cytometry on 293T-Claudin18.1 cells, antibody at 3 µg/mL
[6] = molecular target: Claudin18.1 on cells (human) (UniProt P56856); assay: flow cytometry on 293T-Claudin18.1 cells, antibody at 1.5 µg/mL; remark: listed apart in the source
[7] = molecular target: Claudin18.1 on cells (human) (UniProt P56856); assay: flow cytometry on 293T-Claudin18.1 cells, antibody at 3 µg/mL; remark: listed apart in the source
[8] = molecular target: Claudin18.1 on cells (human) (UniProt P56856); assay: flow cytometry on 293T-Claudin18.1 cells, antibody at 0.75 µg/mL; remark: listed apart in the source

Chain of Claudin18.1 on cells (human) (P56856 whole entry, form in doubt): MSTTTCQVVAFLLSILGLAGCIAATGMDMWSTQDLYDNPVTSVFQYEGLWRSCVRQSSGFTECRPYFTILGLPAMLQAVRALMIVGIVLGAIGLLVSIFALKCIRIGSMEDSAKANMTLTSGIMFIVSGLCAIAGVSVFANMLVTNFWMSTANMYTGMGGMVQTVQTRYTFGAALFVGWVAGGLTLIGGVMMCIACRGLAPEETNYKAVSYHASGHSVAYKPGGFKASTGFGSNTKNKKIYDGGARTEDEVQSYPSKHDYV

Substance: IMAB362 (antibody)
- mean fluorescence intensity [1]: 15600
- mean fluorescence intensity [2]: 12800
- mean fluorescence intensity [3]: 20700
- mean fluorescence intensity [4]: 24900
- mean fluorescence intensity [5]: 12500
- mean fluorescence intensity [6]: 17300
- mean fluorescence intensity [7]: 35600
- mean fluorescence intensity [8]: 32000

Source: US20220204609A1
